Test results as given in PMC7501880.

Target: DIP-α^Nectin1 chimera (human | Drosophila) (UniProt Q15223)
Assay: SPR

Kd: < 5 mM
Substance: Dpr10^Nectin3 chimera (from UniProt Q9NQS3 58-167)
